Assay results: US20230272055A1 (Incyte, published 2023)

T1: human Type 1 mutCALR on Ba/F3 cells expressing MPL and Type 1 mutCALR (human)
T1 chain: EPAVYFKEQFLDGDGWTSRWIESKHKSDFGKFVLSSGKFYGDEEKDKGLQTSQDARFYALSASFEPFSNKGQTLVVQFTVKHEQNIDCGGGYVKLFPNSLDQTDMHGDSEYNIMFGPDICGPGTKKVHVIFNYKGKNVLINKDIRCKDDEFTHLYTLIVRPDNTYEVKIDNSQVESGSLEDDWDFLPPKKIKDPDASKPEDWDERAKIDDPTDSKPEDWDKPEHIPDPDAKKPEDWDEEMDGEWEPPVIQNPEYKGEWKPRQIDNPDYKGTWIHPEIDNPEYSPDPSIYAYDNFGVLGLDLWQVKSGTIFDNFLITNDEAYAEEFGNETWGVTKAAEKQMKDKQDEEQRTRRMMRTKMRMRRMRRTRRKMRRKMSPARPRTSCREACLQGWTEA

T2: human mutCALR on BaF3 cells stably expressing human MPL and human mutCALR (MPL-mutCALR cells) (human)
T2 construct: also called mutant calreticulin
T2 chain: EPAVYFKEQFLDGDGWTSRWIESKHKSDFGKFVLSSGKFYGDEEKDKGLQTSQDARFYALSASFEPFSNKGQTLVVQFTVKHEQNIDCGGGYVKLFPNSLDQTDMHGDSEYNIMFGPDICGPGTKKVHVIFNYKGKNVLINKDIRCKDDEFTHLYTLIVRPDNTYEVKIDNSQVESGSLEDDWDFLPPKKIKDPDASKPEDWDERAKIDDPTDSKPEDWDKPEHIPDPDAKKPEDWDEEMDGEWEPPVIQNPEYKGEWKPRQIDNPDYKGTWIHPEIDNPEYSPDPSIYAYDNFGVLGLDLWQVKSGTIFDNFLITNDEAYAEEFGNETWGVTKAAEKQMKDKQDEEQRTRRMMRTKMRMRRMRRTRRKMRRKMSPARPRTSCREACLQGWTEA

B1: anti-mutCALR antibody clone 52 (antibody, human IgG1, kappa, V domains shown)
VH: EVQLVQSGAEVKKPGASVKVSCKVSGYTLTELSMHWVRQAPGKGLEWMGLVDPEDGETIYAEKFQGRVTITADTSTDTAYMELSSPRSEDTAVYYCATTIGDDYFDYWGQGTLVTVSS
VL: not shown
notes: human IgG1
B2: anti-mutCALR antibody clone 53 (antibody, human IgG1, lambda, V domains shown)
VH: QVQLVQSGAEVKKPGASVKVSCKVSGYTLTELSMHWVRQAPGKGLEWMGGFDPEDGETIYAQKFQGRVTMTEDTSTDTAYMELSSLRSEDTAVYYCATDIQGLAEFDYWGQGTLVTVSS
VL: QSALTQPRSVSGSPGQSVTISCTGTNTDVGAYIDVSWYQQHPGKAPKLIIYDVSKWPSGVPDRFSGSKSGNTASLTISGLQAEDEADYYCCSYAGNHSFSFGGGTKVTVLG
notes: human IgG1
B3: anti-mutCALR antibody clone 48 (antibody, human IgG1, lambda, V domains shown)
VH: EVQLVQSGAEVKKPGSSVKVSCKASGGTFSSYAISWVRQAPGQGLEWMGGIIPIFGTANYAQKFQGRVTITADESTSTAYMELSSLRSEDTAVYYCASSPLRGSGWYWHYYYGMDVWGQGTTVTVSS
VL: SYVLTQPPSVSVAPGKTARITCGGNNIGSKSVHWYQQKPGQAPVLVIYQDRKRPSGIPERFSGSNSGNTATLTISGTQAMDEADYYCQAWDSSTAVFGGGTKLTVLG
notes: human IgG1
B4: anti-mutCALR antibody clone 49 (antibody, human IgG1, lambda, V domains shown)
VH: EVQLVQSGAEVKKPGSSVKVSCKASGGTFSSYAISWVRQAPGQGLEWMGGIIPIFGTANYAQKFQGRVTITADESTSTAYMELSSLRSEDTAVYYCASSPLRGSGWYWHYYYGMDVWGQGTTVTVSS
VL: SYELTQPPSVSVAPGKTARITCGGNNIRAKHVHWYQQKPGQSPVLVIYQDSKRPSGIPERFSGSNSGSTATLTISRVEAGDEADYYCQVWDSSTVVFGGGTKLTVLG
notes: human IgG1
B5: anti-mutCALR antibody clone 45 (antibody, human IgG1, lambda, V domains shown)
VH: EVQLVQSGAEVKKPGSSVKVSCKASGGTFSSYAISWVRQAPGQGLEWMGGIIPIFGTANYAQKFQGRVTITADESTSTAYMELSSLRSEDTAVYYCASSPLRGSGWYWHYYYGMDVWGQGTTVTVSS
VL: SYVLTQPLSVSVAPGQTARITCGGNNIGRKSVHWYQQKPGQAPVLVIYRDSNRPSGIPERFSGSNSGNTATLTISRAQAGDEADYYCQVWDSSTVVFGGGTKLTVLG
notes: human IgG1
B6: anti-mutCALR antibody clone 50 (antibody, human IgG1, lambda, V domains shown)
VH: QMQLVQSGAEVKKPGSSVKVSCKASGGTFSSYAISWVRQAPGQGLEWMGGIIPIFGTANYAQKFQGRVTITADESTSTAYMELSSLRSEDTAVYYCASSPLRGSGWYWHYYYGMDVWGQGTTVTVSS
VL: SYVLTQPPSVSVAPGKTARITCGGNNIGTKSVHWYQQKPGQSPVLVIYQDRKRPSGIPERFSGSNSGNTATLTISGTQAMDEADYYCQVWDSSTEVFGGGTKLTVLG
notes: human IgG1
B7: anti-mutCALR antibody clone 43 (antibody, human IgG1, lambda, V domains shown)
VH: EVQLVQSGAEVKKPGASVKVSCKASGGTFSSYAISWVRQAPGQGLEWMGGIIPIFGTANYAQKFQGRVTITADESTSTAYMELSSLRSEDTAVYYCASSPLRGSGWYWHYYYGMDVWGQGTTVTVSS
VL: not shown
notes: human IgG1
B8: anti-mutCALR antibody clone 51 (antibody, human IgG1, lambda, V domains shown)
VH: EVQLVQSGAEVKKPGSSVKVSCKASGGTFSSYAISWVRQAPGQGLEWMGGIIPIFGTANYAQKFQGRVTITADESTSTAYMELSSLRSEDTAVYYCASSPLRGSGWYWHYYYGMDVWGQGTTVTVSS
VL: SYELTQPPSVSVAPGKTARITCGGNKIGTKSVHWYQQKPGQAPVLVIYQDSKRPSGIPERFSGSNSGNTATLTISGTQAMDEADYYCQAWGSSTVVFGGGTKLTVLG
notes: human IgG1
B9: anti-mutCALR antibody clone 33 (antibody, human IgG1, lambda, V domains shown)
VH: QVQLVQSGAEVKKPGATVKISCKVSGYSFTDYFIHWVQQAPGKGLAWVGLVDPEDGETIYAEKFQGRVTITADTSTDTAYMELSSLRSEDTAVYYCATPGGILTDPDAFDIWGQGTMVTVSS
VL: QSALTQPRSVSGSPGQSVTISCAGTGSDVGGYNHVSWYQHHPGKAPKLMIYDVNKRPSGVPDRFSGSKSGNTASLTISGLQAEDEADYYCSSYIPSSTRWVFGGGTKLTVLG
notes: human IgG1
B10: anti-mutCALR antibody clone 37 (antibody, human IgG1, lambda, V domains shown)
VH: QVQLVQSGAEVKKPGATVKISCKVSGYSFTDYFIHWVQQAPGKGLAWVGLVDPEDGETIYAEKFQGRVTITADTSTDTAYMELSSLRSEDTAVYYCATPGGILTDPDAFDIWGQGTMVTVSS
VL: QSALTQPASVSGSPGQSITISCTGTSSDVGGYNYVSWYQQHPGKAPKLMIYDVSNRPSGVSNRFSGSKSGNTASLTISGLQAEDEADYYCSSYTSSSTFYVFGTGTKVTVLG
notes: human IgG1; group 2
B11: anti-mutCALR antibody clone 34 (antibody, human IgG1, lambda, V domains shown)
VH: QVQLVQSGAEVKKPGATVKISCKVSGYSFTDYFIHWVQQAPGKGLAWVGLVDPEDGETIYAEKFQGRVTITADTSTDTAYMELSSLRSEDTAVYYCATPGGILTDPDAFDIWGQGTMVTVSS
VL: QSALTQPASVSGSPGQSITISCTGTSSDVGGYNYVSWYQQHPGKAPKLMIYEVSNRPSGVSNRFSGSKSGNTASLTISGLQAEDEADYYCSSYTSSSTYVFGTGTKVTVLG
notes: human IgG1
B12: anti-mutCALR antibody clone 35 (antibody, human IgG1, lambda, V domains shown)
VH: QVQLVQSGAEVKKPGATVKISCKVSGYSFTDYFIHWVQQAPGKGLAWVGLVDPEDGETIYAERFQGRVTITADTSTDTAYMELSSLRSEDTAVYYCATPGGILTDPDAFDIWGQGTMVTVSS
VL: QSALTQPASVSGSPGQSITISCTGTSSDVGGYNYVSWYQQHPGKAPKLMIYEVSNRPSGVSNRFSGSKSGNTASLTISGLQAEDEADYYCSSYTSSSTPYVFGTGTKVTVLG
notes: human IgG1; group 2
B13: anti-mutCALR antibody clone 41 (antibody, human IgG1, lambda, V domains shown)
VH: EVQLVQSGAEVKKPGASVKVSCKVSGYTLTELSMHWVRQAPGKGLEWMGLVDPEDGETIYAQKFQGRVTMTEDTSTDTAYMELSSLRSEDTAVYYCAREEWSGDGDDAFDIWGQGTMVTVSS
VL: QSVLTQPPSVSAAPGQKVTISCSGSSSNIGSYSVSWYQQLPGTAPKLLIYDNNKRPSGIPDRFSGSNSGTSATLGITGLQTGDEADYYCGTWDSSLSAWVFGGGTKLTVLG
notes: human IgG1
B14: anti-mutCALR antibody clone 40 (antibody, human IgG1, lambda, V domains shown)
VH: EVQLVQSGAEVKKPGASVKVSCKVSGYTLTESSMHWVRQAPGKGLEWMGLVDPEDGETIYAQKFQGRVTMTEDTSTDTAYMELSSLRSEDTAVYYCAREEWSGDGDDAFDIWGQGTMVTVSS
VL: QSVLTQPPSVSAAPGQKVTISCSGSSSNIGSYSVSWYQQLPGTAPKLLIYDNNKRPSGIPDRFSGSNSGTSATLGITGLQTGDEADYYCGTWDSSLSAWVFGGGTKLTVLG
notes: human IgG1
B15: anti-mutCALR antibody clone 42 (antibody, human IgG1, lambda, V domains shown)
VH: EVQLVQSGAEVKKPGASVKVSCKVSGYTLTELSMHWVRQAPGKGLEWMGLVDPEDGETIYAQKFQGRVTMTEDTSTDTAYMELSSLRSEDTAVYYCAREEWSGDGDDAFDIWGQGTMVTVSS
VL: QSVLTQPPSVSAAPGQKVTISCSGSSSNIGSYSVSWYQQLPGTAPKLLIYDDNKRPSGIPDRFSGSNSGTSATLSITGLQTGDEADYYCGTWDSSLSAWVFGGGTKLTVLG
notes: human IgG1
B16: anti-mutCALR antibody clone 38 (antibody, human IgG1, kappa, V domains shown)
VH: EVQPVQSGAEVKKPGSSVKVSCKASGGTFSSYAISWVRQAPGQGLEWMGLVDPEDGETIYAEKFRGRVTITADTSTDTAYMELSSLRSEDTAVYYCATEESYGPWGQGTLVTVSS
VL: DIQLTQSPSSLSASVGDRVTITCQASQDISNYLNWYQQKPGKAPKLLIYDASNLETGVPSRFSGSGSGTEFTLTISSLQPEDFATYYCQQLNSYPLTFGGGTKLEIKR
notes: human IgG1
B17: anti-mutCALR antibody clone 39 (antibody, human IgG1, kappa, V domains shown)
VH: EVQLVQSGAEVKKPGSSVKVSCKASGGTFSSYAISWVRQAPGQGLEWMGLVDPEDGETIYAEKFQGRVTITADTSTDTAYMELSSLRSEDTAVYYCATEESYGPWGQGTLVTVSS
VL: DIQLTQSPSSLSASVGDRVTITCQASQDISNYLDWYQQKPGKAPKLLIYDASNLETGVPSRFSGSGSGTEFTLTISSLQPEDFATYYCQQLNSYPLTFGGGTKLEIKR
notes: human IgG1

Columns and labels:
[1] = target: T1, human Type 1 mutCALR on Ba/F3 cells …; experiment: cell-based or functional assay
[2] = target: T2, human mutCALR on BaF3 cells stably …; experiment: flow cytometry, BaF3 MPL-mutCALR cells
Experimental: On the day of the assay, cells were washed and resuspended in assay buffer. Approximately 200,000 cells/well were added to 96-well plates and stained with the indicated concentration of antibodies for 30 minutes on ice. Cells were then washed and stained with goat anti-human secondary conjugated to R-phycoerythrin (R-PE) (Jackson Immuno Research Laboratories) for 30 minutes on ice. The cells were then washed and analyzed by flow cytometry.

[3] = target: MBP protein (UniProt P0AEX9 27-392 = MBP); experiment: SPR (Biacore 8K), antibody captured on anti-human IgG (Fc), MBP injected
Experimental: Experiment 1: Recombinant MBP-mutCALR Type 1 fusion protein was custom made at Cepter (cepterbiopartners.com). Data for the interaction of antibodies with recombinant MBP-mutCALR Type 1 fusion protein were collected at 25° C. on a Biacore 8K instrument (Cytiva, Marlborough, Mass.), and all reagents were obtained from Cytiva unless otherwise specified. The experiments were conducted using Tris-buffered saline (pH 7.2), 0.005% Surfactant P20, 1 mM CaCl₂) as running buffer. To prepare the capture surfaces, anti-human IgG (Fc) antibodies (Product #29234600) was amine-coupled onto a CM4 chip (Product #BR100534) under standard conditions using an Amine Coupling Kit (Product #BR100050). […] The kinetics parameters were obtained by applying 1:1 binding model to fit the data from multiple-cycle injection experiments using Biacore Insight Evaluation software.

| Binder | IC50, inhibition of pSTAT5 [1] | MPL-mutCALR AUC [2] | EC50 [2] | binding result [3] |
| --- | --- | --- | --- | --- |
| B1 | 0.346 µg/mL | 65800 |  |  |
| B2 | 0.402 µg/mL | 64600 | 0.02 µg/mL |  |
| B3 | 2.6 µg/mL | 30300 |  |  |
| B4 | 9.3 µg/mL | 36400 | 0.89 µg/mL |  |
| B5 | 13 µg/mL | 29800 |  |  |
| B6 | 28 µg/mL | 36700 | 0.8 µg/mL |  |
| B7 | 6.9 µg/mL | 27900 |  |  |
| B8 | 14 µg/mL | 37300 | 1.15 µg/mL |  |
| B9 | 80.4 µg/mL | 38700 | 0.15 µg/mL |  |
| B10 |  |  |  | no binding (tested: 250 nM) |
| B11 | 0.072 µg/mL | 71900 | 0.02 µg/mL |  |
| B12 |  |  |  | no binding (tested: 250 nM) |
| B13 | 0.364 µg/mL | 60600 |  |  |
| B14 | 0.742 µg/mL | 52900 | 0.07 µg/mL |  |
| B15 | 0.196 µg/mL | 61300 |  |  |
| B16 | 3.55 µg/mL | 37000 | 1.44 µg/mL |  |
| B17 | 3.97 µg/mL | 51500 |  |  |
